Columns and labels:
[1] = target: SUV420H1(1–390), wild type, with N-terminal 6× His-TEV tag (human) (UniProt Q4FZB7); assay: MST; His-tagged SUV420H1 labelled with RED-tris-NTA (50 nM protein, 10 nM dye) kept constant; nucleosomes serially diluted from 6 μM to 45.75 pM; 20 mM HEPES pH 7.5, 50 mM NaCl, 50 mM KCl, 1 mg/mL BSA, 0.05% Tween-20, 40 μM SAM, 2 mM DTT; room temperature; triplicate
[2] = target: SUV420H1(1-390) wild type (human) (UniProt Q4FZB7); assay: MST; conditions: MST: 20 mM HEPES pH 7.5, 50 mM NaCl (listed twice), 50 mM KCl, 1 mg/mL BSA, 0.05% Tween-20, 40 uM SAM, 2 mM DTT, room temperature, EMSA: 25 mM HEPES pH 7.5 …
Chain of SUV420H1(1-390) wild type (human) (Q4FZB7 1-390): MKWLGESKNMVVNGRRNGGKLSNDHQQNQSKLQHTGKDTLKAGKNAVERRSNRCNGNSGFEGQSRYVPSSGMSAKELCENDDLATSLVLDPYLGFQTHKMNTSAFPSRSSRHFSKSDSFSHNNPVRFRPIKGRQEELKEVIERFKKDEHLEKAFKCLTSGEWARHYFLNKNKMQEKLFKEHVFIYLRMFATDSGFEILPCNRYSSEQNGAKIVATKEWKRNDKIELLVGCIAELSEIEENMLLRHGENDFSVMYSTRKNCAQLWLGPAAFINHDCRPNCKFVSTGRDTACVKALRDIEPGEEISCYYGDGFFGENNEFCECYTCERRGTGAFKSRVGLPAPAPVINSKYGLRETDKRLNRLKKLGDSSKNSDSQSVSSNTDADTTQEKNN

SUV420H1(63-390) (human) = assay: MST; conditions: histone H4 K20M; MST: 20 mM HEPES pH 7.5, 50 mM NaCl (listed twice), 50 mM KCl, 1 mg/mL BSA, 0.05% Tween-20, 40 uM SAM, 2 mM DTT, room temperature; EMSA: 25 mM HEPES pH 7.5 …
SUV420H1(1-335) (human) = assay: MST; conditions: histone H4 K20M; MST: 20 mM HEPES pH 7.5, 50 mM NaCl (listed twice), 50 mM KCl, 1 mg/mL BSA, 0.05% Tween-20, 40 uM SAM, 2 mM DTT, room temperature; EMSA: 25 mM HEPES pH 7.5 …
SUV420H1(63–390) (human) = SUV420H1(63–390) (human) (UniProt Q4FZB7); assay: MST; His-tagged SUV420H1 labelled with RED-tris-NTA (50 nM protein, 10 nM dye) kept constant; nucleosomes serially diluted from 6 μM to 45.75 pM; 20 mM HEPES pH 7.5, 50 mM NaCl, 50 mM KCl, 1 mg/mL BSA, 0.05% Tween-20, 40 μM SAM, 2 mM DTT; room temperature; triplicate
Chain of SUV420H1(63–390) (human) (Q4FZB7 63-390): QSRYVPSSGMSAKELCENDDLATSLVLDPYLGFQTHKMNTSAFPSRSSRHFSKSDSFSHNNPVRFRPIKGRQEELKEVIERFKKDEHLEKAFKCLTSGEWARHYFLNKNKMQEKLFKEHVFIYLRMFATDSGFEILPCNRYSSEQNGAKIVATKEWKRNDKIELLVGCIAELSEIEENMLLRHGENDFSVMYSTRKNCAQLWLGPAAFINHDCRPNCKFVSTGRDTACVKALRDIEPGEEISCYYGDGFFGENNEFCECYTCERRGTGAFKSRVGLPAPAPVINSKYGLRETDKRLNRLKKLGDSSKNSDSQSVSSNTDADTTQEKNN

[3] = target: SUV420H1(1–390) R357A (human) (UniProt Q4FZB7); assay: as above
Chain of SUV420H1(1–390) R357A (human) (Q4FZB7 1-390 R357A): as the sequence (Q4FZB7 1-390) above, with R357A counted along it

[4] = target: SUV420H1(1–390) R257A (human) (UniProt Q4FZB7); assay: as above
Chain of SUV420H1(1–390) R257A (human) (Q4FZB7 1-390 R257A): as the sequence (Q4FZB7 1-390) above, with R257A counted along it

SUV420H1(1–335) (human) = SUV420H1(1–335) (human) (UniProt Q4FZB7); assay: as above
Chain of SUV420H1(1–335) (human) (Q4FZB7 1-335): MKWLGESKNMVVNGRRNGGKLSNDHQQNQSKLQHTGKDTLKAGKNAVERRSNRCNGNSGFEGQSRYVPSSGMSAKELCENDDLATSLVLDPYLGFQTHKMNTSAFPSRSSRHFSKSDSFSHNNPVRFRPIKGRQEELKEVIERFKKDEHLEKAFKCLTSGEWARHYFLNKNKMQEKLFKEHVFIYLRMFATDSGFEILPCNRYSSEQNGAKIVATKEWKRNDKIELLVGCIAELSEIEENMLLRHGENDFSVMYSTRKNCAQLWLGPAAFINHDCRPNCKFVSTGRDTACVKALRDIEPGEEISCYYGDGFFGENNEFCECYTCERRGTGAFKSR

[5] = target: SUV420H1(1–390) R220A (human) (UniProt Q4FZB7); assay: as above
Chain of SUV420H1(1–390) R220A (human) (Q4FZB7 1-390 R220A): as the sequence (Q4FZB7 1-390) above, with R220A counted along it

[6] = target: SUV420H1(1–390) R286A (human) (UniProt Q4FZB7); assay: as above
Chain of SUV420H1(1–390) R286A (human) (Q4FZB7 1-390 R286A): as the sequence (Q4FZB7 1-390) above, with R286A counted along it

[7] = target: SUV420H1(1–390) R352A (human) (UniProt Q4FZB7); assay: as above
Chain of SUV420H1(1–390) R352A (human) (Q4FZB7 1-390 R352A): as the sequence (Q4FZB7 1-390) above, with R352A counted along it

[8] = target: SUV420H1(1–390) S255F (human) (UniProt Q4FZB7); assay: as above
Chain of SUV420H1(1–390) S255F (human) (Q4FZB7 1-390 S255F): as the sequence (Q4FZB7 1-390) above, with S255F counted along it

[9] = target: SUV420H1(1–390) S283L (human) (UniProt Q4FZB7); assay: as above
Chain of SUV420H1(1–390) S283L (human) (Q4FZB7 1-390 S283L): as the sequence (Q4FZB7 1-390) above, with S283L counted along it

[10] = target: SUV420H1(1–390) K258A (human) (UniProt Q4FZB7); assay: as above
Chain of SUV420H1(1–390) K258A (human) (Q4FZB7 1-390 K258A): as the sequence (Q4FZB7 1-390) above, with K258A counted along it

[11] = target: SUV420H1(1–390) Y349A (human) (UniProt Q4FZB7); assay: as above
Chain of SUV420H1(1–390) Y349A (human) (Q4FZB7 1-390 Y349A): as the sequence (Q4FZB7 1-390) above, with Y349A counted along it

[12] = target: SUV420H1(1–390) R357H (human) (UniProt Q4FZB7); assay: as above
Chain of SUV420H1(1–390) R357H (human) (Q4FZB7 1-390 R357H): as the sequence (Q4FZB7 1-390) above, with R357H counted along it

Chain of SUV420H1(1–390), wild type, with N-terminal 6× His-TEV tag (human) (Q4FZB7 1-390): as the sequence (Q4FZB7 1-390) above

H2A.Z-containing nucleosome core particle with wild-type H4 (H4K20) (from UniProt P0C0S5 14-126; P06899 1-126; P68431 1-136; P62805 1-103) (complex)
Kd [1]: 130 nM

NCP H2A, H4K20 (canonical)
Kd [2]: 227 nM

NCP H2A, H4K20M
Kd (SUV420H1(63-390) (human)): 410 nM
Kd (SUV420H1(1-335) (human)): 292 nM
Kd ([2]; histone H4 K20M): 62 nM

H2A-containing nucleosome core particle with wild-type H4 (H4K20) (from UniProt P04908 16-130; P06899 1-126; P68431 1-136; P62805 1-103) (complex)
Kd [1]: 227 nM

NCP H2A.Z, H4K20
Kd ([2]; histone variant H2A.Z): 130 nM

H2A-containing nucleosome core particle with H4K20M (from UniProt P04908 16-130; P06899 1-126; P68431 1-136) (complex)
Kd (SUV420H1(63–390) (human)): 410 nM
Kd [3]: 213 nM
Kd [4]: 144 nM
Kd (SUV420H1(1–335) (human)): 292 nM
Kd [5]: 93 nM
Kd [6]: 323 nM
Kd [7]: 220 nM
Kd [8]: 182 nM
Kd [9]: 85 nM
Kd [10]: 112 nM
Kd [11]: 108 nM
Kd [12]: 83 nM
Kd [1]: 62 nM

— paper PMC10697951
